Assay results published in patent US20210095004.

Experiments:
Aca cand9 = target: T1, Aca cand9
T1 chain: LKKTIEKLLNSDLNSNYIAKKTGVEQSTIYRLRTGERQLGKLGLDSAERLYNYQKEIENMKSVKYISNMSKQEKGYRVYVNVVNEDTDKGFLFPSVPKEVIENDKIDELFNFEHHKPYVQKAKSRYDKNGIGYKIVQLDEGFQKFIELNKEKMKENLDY

Aca cand27 = target: T2, Aca cand27
T2 chain: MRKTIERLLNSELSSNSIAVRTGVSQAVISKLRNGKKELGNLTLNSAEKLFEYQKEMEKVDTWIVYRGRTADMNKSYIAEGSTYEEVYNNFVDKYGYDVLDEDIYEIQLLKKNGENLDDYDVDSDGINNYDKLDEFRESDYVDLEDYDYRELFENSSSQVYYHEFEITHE

truncated Aca cand9 = target: T3, truncated Aca cand9
T3 chain: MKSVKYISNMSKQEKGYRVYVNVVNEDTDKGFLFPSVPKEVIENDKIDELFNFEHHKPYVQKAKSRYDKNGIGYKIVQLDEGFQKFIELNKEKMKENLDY

truncated Aca cand27 = target: T4, truncated Aca cand27
T4 chain: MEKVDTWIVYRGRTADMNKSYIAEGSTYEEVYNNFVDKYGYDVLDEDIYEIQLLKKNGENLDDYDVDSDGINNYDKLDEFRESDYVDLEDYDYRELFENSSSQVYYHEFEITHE

B1: Staphylococcus aureus Cas9 (protein)
chain: MKRNYILGLDIGITSVGYGIIDYETRDVIDAGVRLFKEANVENNEGRRSKRGARRLKRRRRHRIQRVKKLLFDYNLLTDHSELSGINPYEARVKGLSQKLSEEEFSAALLHLAKRRGVHNVNEVEEDTGNELSTKEQISRNSKALEEKYVAELQLERLKKDGEVRGSINRFKTSDYVKEAKQLLKVQKAYHQLDQSFIDTYIDLLETRRTYYEGPGEGSPFGWKDIKEWYEMLMGHCTYFPEELRSVKYAYNADLYNALNDLNNLVITRDENEKLEYYEKFQIIENVFKQKKKPTLKQIAKEILVNEEDIKGYRVTSTGKPEFTNLKVYHDIKDITARKEIIENAELLDQIAKILTIYQSSEDIQEELTNLNSELTQEEIEQISNLKGYTGTHNLSLKAINLILDELWHTNDNQIAIFNRLKLVPKKVDLSQQKEIPTTLVDDFILSPVVKRSFIQSIKVINAIIKKYGLPNDIIIELAREKNSKDAQKMINEMQKRNRQTNERIEEIIRTTGKENAKYLIEKIKLHDMQEGKCLYSLEAIPLEDLLNNPFNYEVDHIIPRSVSFDNSFNNKVLVKQEENSKKGNRTPFQYLSSSDSKISYETFKKHILNLAKGKGRISKTKKEYLLEERDINRFSVQKDFINRNLVDTRYATRGLMNLLRSYFRVNNLDVKVKSINGGFTSFLRRKWKFKKERNKGYKHHAEDALIIANADFIFKEWKKLDKAKKVMENQMFEEKQAESMPEIETEQEYKEIFITPHQIKHIKDFKDYKYSHRVDKKPNRELINDTLYSTRKDDKGNTLIVNNLNGLYDKDNDKLKKLINKSPEKLLMYHHDPQTYQKLKLIMEQYGDEKNPLYKYYEETGNYLTKYSKKDNGPVIKKIKYYGNKLNAHLDITDDYPNSRNKVVKLSLKPYRFDVYLDNGVYKFVTVKNLDVIKKENYYEVNSKCYEEAKKLKKISNQAEFIASFYNNDLIKINGELYRVIGVNNDLLNRIEVNMIDITYREYLENMNDKRPPRIIKTIASKTQSIKKYSTDILGNLYEVKSKKHPQIIKKG
- SauCas9-mediated cleavage of target DNA in vitro (FIG. 1) (Aca cand9): inhibited SauCas9-mediated cleavage of target DNA at Acr:SauCas9 molar ratios of 10:1 and 20:1
- SauCas9-mediated cleavage of target DNA in vitro (FIG. 1) (Aca cand27): inhibited SauCas9-mediated cleavage of target DNA at Acr:SauCas9 molar ratios of 10:1 and 20:1
- SauCas9/guide RNA-mediated cleavage of target DNA in vitro (FIG. 2B) (truncated Aca cand9): inhibited SauCas9/guide RNA-mediated cleavage of target DNA at truncated Acr:SauCas9 molar ratios of 5:1, 10:1, and 20:1
- SauCas9/guide RNA-mediated cleavage of target DNA in vitro (FIG. 2C) (truncated Aca cand27): inhibited SauCas9/guide RNA-mediated cleavage of target DNA at truncated Acr:SauCas9 molar ratios of 5:1, 10:1, and 20:1
